Legend:
Pin1 (GST-Pin1) = Pin1 (GST-Pin1) (UniProt Q13526); experiment: GST-Pin1 pull-down from U2OS lysate; settings: reference: SST-MTAP (wild type); sites S398,S405,T408
spindly = spindly (UniProt Q96EA4); experiment: SBP affinity purification, immunoblot; settings: reference: SST-MTAP, sites S398,S405,T408
[1] = molecular target: GST-tagged Pin1 (prolyl isomerase interacting NIMA 1) (UniProt Q13526 1-163); experiment: pull-down

hLIC1 (dynein light intermediate chain 1) (from UniProt Q9Y6G9) AAA-MTAP
binding against the reference (Pin1 (GST-Pin1)): weaker

hLIC1 (dynein light intermediate chain 1) (from UniProt Q9Y6G9) AAA-MTAP, metaphase lysate
binding against the reference (spindly; metaphase lysate): weaker

hLIC1 (dynein light intermediate chain 1) (from UniProt Q9Y6G9) AAA-MTAP, prometaphase lysate
binding against the reference (spindly; prometaphase lysate): weaker

B1: purified rLIC1-CTD (aa 389-523), phosphorylated in vitro by cdk1-cyclin B (domain or fragment, rat, UniProt Q9QXU8 389-523, looked up)
chain: TAAGRPVDASPRVPGGSPRTPNRSVSSNVASVSPIPAGSKKIDPNMKAGATSEGVLANFFNSLLSKKTGSPGGPGVGGSPGGGAAGASTSLPPSAKKSGQKPVLSDVHAELDRITRKPASVSPTTPPSPTEGEAS
modifications: phosphorylated in vitro by cdk1-cyclin B (three cdk1 sites S398, S405, T408)
binding result [1]: binds
